B1: Azoarcus group I ribozyme (parent)
chain: GUGCCUUGCGCCGGGAAACCACGCAAGGGAUGGUGUCAAAUUCGGCGAAACCUAAGCGCCCGCCCGGGCGUAUGGCAACGCCGAGCCAAGCUUCGGCGCCUGCGCCGAUGAAGGUGUAGAGACUAGACGGCACCCACCUAAGGCAAACGCUAUGGUGAAGGCAUAGUCCAGGGAGUGGCGAAAGUCACACAAACCGG

Variants of B1 are the subject of this data set. In words: reverse-splicing fitness (ratio to wild type); higher = more active; in vitro selection; Mg2+ level not given. In short, it runs like this: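 An in vitro group I ribozyme library with randomized positions was T7-transcribed and gel-purified. In triplicate, 10 pmol RNA in EPPS pH 7.5 was reacted with 50 pmoles of a 30-nt RNA substrate for 1 h at 37 °C across several added MgCl2 levels (1–48 mM), then stopped with EDTA. Products were reverse transcribed from a substrate-complementary primer, PCR-amplified and sequenced (HiSeq 4000). Fitness is a variant's read proportion after selection over that before, normalised to wild type.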
Turning to A111G A120U C150G C169U U176A, the reverse-splicing fitness stood at 0.00346. With A111G A120U C150G C169U U176G the figure was 0.00256; with A111G A120U C150G C169U U176C, 0.00437; with A111G A120U A145C C169U, 0.12. With A111G A120U A145C C169A the figure was 0.00532; with A111G A120U A145C C169G, 0.0842. The same measure for A111G A120U C150G C169G U176G: 0.00237; for A111G A120U C150G C169G U176A: 0.00427; for A111G A120U C150G C169G U176C: 0.00213.

A111G A145C C150G C169A U176G: the reverse-splicing fitness is 0.00652. The same measure for A111G A145C C150G C169A U176A: 0.0077.

For the variant A111G A145C C150G C169A U176C, the reverse-splicing fitness is 0.00646. A111G A120U A145G C150G U176A: the reverse-splicing fitness amounted to 0.00779.

In the case of A111G A120U A145G C150G U176C, the reverse-splicing fitness amounted to 0.0188. Regarding A111G A120U A145G C150G U176G, the reverse-splicing fitness stood at 0.00403. With A111G A120U A145G C150G C169A U176A the figure was 0.00856; with A111G A120U A145G C150G C169A U176G, 0.00395. With A111G A120U A145G C150G C169A U176C the figure was 0.00599.

For A111G A145C C150U C169U, the reverse-splicing fitness was determined as 0.0495. With A111G A145C C150U C169A the figure was 0.0167; with A111G A145C C150U C169G, 0.0327; with A111G A145C C150U C169G U176C, 0.0204. With A111G A145C C150U C169G U176G, the reverse-splicing fitness was found to be 0.00586. With A111G A145C C150U C169G U176A the figure was 0.0242. With A111G A120U A145U C150A C169A U176C the figure was 0.00238; with A111G A120U A145U C150A C169A U176A, 0.00244; with A111G A120U A145U C150A C169A U176G, 0.00207. Take A111G A145C C150G C169G U176A: the reverse-splicing fitness was 0.00824. With A111G A145C C150G C169G U176C the figure was 0.00562; with A111G A145C C150G C169G U176G, 0.00435. On to A111G A120U A145C C150G C169U, for which the reverse-splicing fitness is 0.014. With A111G A120U A145C C150G C169G the figure was 0.0104; with A111G A120U A145C C150G C169A, 0.00293.

As to A111G A120U A145U C150A C169U, the reverse-splicing fitness came out at 0.0112. For the variant A111G A120U A145U C150A C169A, the reverse-splicing fitness came to 0.00222. The same measure for A111G A120U A145U C150A C169G: 0.00763; for A111G A120G C169G U176A: 0.09; for A111G A120G C169G U176C: 0.119. The same measure for A111G A120G C169G U176G: 0.00692; for A111G A120U A145C C150G C169U U176C: 0.0023; for A111G A120U A145C C150G C169U U176G: 0.00225. With A111G A120U A145C C150G C169U U176A the figure was 0.00272. In the case of A111G A145C C150G C169A, the reverse-splicing fitness is 0.0117. The same measure for A111G A145C C150G C169U: 0.0255; for A111G A145C C150G C169G: 0.018.

A111G A145G C150A: the reverse-splicing fitness is 0.517. With A111G A120U A145G C150A U176C the figure was 0.0581; with A111G A120U A145G C150A U176A, 0.0506; with A111G A120U A145G C150A U176G, 0.0119.

In the case of A111G A120U A145G C150G, the reverse-splicing fitness was 0.0771. The same measure for A111G A120U A145G C150U: 0.611; for A111G A120U A145G C150A: 0.148; for A111G A120U A145U C150U C169U: 0.0793.

Consider A111G A120U A145U C150U C169A, for which the reverse-splicing fitness came out at 0.00473. With A111G A120U A145U C150U C169G the figure was 0.0547; with A111G A120U A145G C150U C169A, 0.00841.

In the case of A111G A120U A145G C150U C169U, the reverse-splicing fitness is 0.111. The same measure for A111G A120U A145G C150U C169G: 0.0623. Turning to A111G A120U A145G C169A U176C, the reverse-splicing fitness was determined as 0.00372. Turning to A111G A120U A145G C169A U176A, the reverse-splicing fitness was determined as 0.00347. The same measure for A111G A120U A145G C169A U176G: 0.0013. With A111G A145C C150U C169U U176G the figure was 0.0062; with A111G A145C C150U C169U U176A, 0.0217; with A111G A145C C150U C169U U176C, 0.0247. A111G A145C C150G U176G: the reverse-splicing fitness is 0.0319. With A111G A145C C150G U176C the figure was 0.212; with A111G A145C C150G U176A, 0.17. With A111G A145C C150A C169G the figure was 0.0111; with A111G A145C C150A C169U, 0.0168. With A111G A145C C150A C169A the figure was 0.00859; with A111G A120U A145C C150U C169G U176A, 0.00436; with A111G A120U A145C C150U C169G U176G, 0.00177. In the case of A111G A120U A145C C150U C169G U176C, the reverse-splicing fitness was determined as 0.0028. With A111G A120U A145G C169A the figure was 0.00517; with A111G A120U A145G C169G, 0.087. The same measure for A111G A120U A145G C169U: 0.126; for A111G A120U A145U C169G U176A: 0.00865; for A111G A120U A145U C169G U176C: 0.0178. For the variant A111G A120U A145U C169G U176G, the reverse-splicing fitness is 0.00196. Take A111G A120U A145C C150G C169G U176C: the reverse-splicing fitness is 0.0019.

As for A111G A120U A145C C150G C169G U176G, the reverse-splicing fitness came out at 0.00213.

Turning to A111G A120U A145C C150G C169G U176A, the reverse-splicing fitness turned out to be 0.00296. With A111G A120U A145U C150G U176G the figure was 0.00462.

Values taken from the RNAGym collection of RNA variant scans (doi:10.1093/molbev/msab373).
